Measurements published in a protein production outcome set (Wang et al. 2014).

Assay: label from the status in PepcDB records
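Also: failed if final PepcDB status was selected cloned or expressed and not failed if soluble or beyond.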

Row | Sequence | protein production
1 | MSVKSVLVFLSVSGSTMPMLILESDSIAEVKLRIQTCNGFRVRRQKLVFSGRELARNASRVKDYGVTGGSVLHLVLKLYDP | failed
2 | MSVLSIVTVPDKRLSLCSEEVEKVDQSIRKLVDDMFETMHANQGLGLAAVQVGVHKRILVMNVPEEFEDSEDIENVEDKIEGYELYGGPYCIINPKIVDISQEKVKLKEGCLSVPGYFDYIVRPQRIAVQYLDYNGNECIIKAQGWLARCLQHEIDHLNGTVFLKYLSKFKRDFAIEKVKKKERTDLI | not failed
3 | MSVPQGARDVEAIRAIGPDQWQTVPAGQTLNRGFSDDEFWLQVRVPAQPANRVLEVGYPLLDEVSVYWELDGRIIESHHTGDTRPFDSRPIVHRNFVFLVPSNTEPVTAWIRVQTQGSVQVPVAVTPSAEFLANEQISYGWQTMFLGIVVALALYNLFLFLIVRHQTYLWYVLTVVCSGAVQLNFNGLLFQWFWPDVPWINRYFTVPVVSAALIAAIVFTMKFLLVKSYSRWGYRILQALLAVNLLGLIYGFLGSYQVGIIWISSLAAFATPVAWLIGINVWRRGQILGGFYVLAWTPLLLGHLVLAVSKLGWIPRSPFTELAPQAGVAVEVILLSFALAYRINMERRRRQQAQEHALDIQRQANLTLESRVRERTEELEQANEQLRAISLTDGLTHVANRRRFDEKLETEWNRALRHEHELSLILLDIDHFKQVNDRFGHLVGDDCLVALASILSDEVQRSGDLVARYGGEEFAILLPTTDVAGAQQVAERMRLSVARTPVNSGEHMSPVSLTISLGVATLTPNRQSDCQELIRRADEALYAAKSDGRNRVVVWHPKAVAPTTG | failed
4 | MSVQLSEGQTFGPRAINVTRTTLVRYAGASGDFNPIHYSDRAAREAGMDGVIAHGMWTMGAALGTVIDWVGGPERVVSQRARFTRPVQVPDTEGGTAIEVAATVRKVSEEAATLAVDVKCDGQSVLGRVEVVVRQGEQ | failed
5 | MSVQNIVNINESNLQQTLEQSMTTPVLFYFWSERSQHCLQLTPVLESLAAQYHGQFILAKLDCDAEQMIAAQFGLRAIPTVYLFQNGQPVDGFQGPQPEEAIRALLDKVLPREEELKAQQAMQLMQEGNYIDALPLLKDAWQLSSQNSEIGLLLAEAQIALNRSEEAEAVLKTIPLQDQDTRYQGLVAQIELLKQAADTPEIQQLQQQVADNPQDAALATQLALQLHQVGRNEEALELLFSHLRKDLTAAEGQTRKTFQEILAALGTGDALASKYRRQLYALLY | not failed
6 | MSVQTPDFSQQQQFLELTQQTIQNQQFDRLVLSQYKGTEPELEKVTFRMVELQQQFKLSALYHYTTKDVTKNYDLNDAIGVIETLIANCKQANLFGSVIEAQLKKNKKKAMLNVQQLSAEKYNNNVGQQHNREKQRYIDTMAPFLQYLGITEPNGNIIPAMARKWKQINKFIEIFSHAYEQIELKDDSIKIVDFGSGKGYLTFALYDYLQQQTRTAPQMTGVELRSNLVEFCEDVAKKAGFDHLDFFEGDVRTYAPEHLDVMIALHACDVATDFAIHTGIRLNASMIMCAPCCHKELRPQLQSPKVLKPMLQFGIHAGQQAEMLTDTLRALLLKAYGYDVKVFEFVSLEHTSKNKMILATKRQTIQQPDPQILEQIQALKQMYGIQKQTLELLLQDQITIDNVGCKC | failed
7 | MSVSPSPFNGAEHPIKGIALICLAVLLFASHDTLSKYLSAFYPIVMVVWARYVVHTLLMLVVFVPRSGFSAVVRTKRPGLQLLRALCLIGTSLLFTTGLRYIPLAEATAVNFLAPLLVTALSVPFLGERVSRAQWLAVLAGFVGVLIVVRPGGALFTPAILLPLGSALCFGFYQLLTRKLSGVDSPTTSNFLTGILNSLIMSALLPFFWSTPTLVHGLFMIGLGTCGMLGHMLLTQAFRHAAPAMLAPFSYGQILFAGLFGYLIFDHTPDQYALVGIAVICLSGLAVAWAQRKR | failed
8 | MSVTSRYRDAWEGFWNEASGDRGAVFWDAEPTLTAGRHLAHFEPHLTDAALPLIDLGCGNGTQTRYFAERFPHVVGADLSAAALAHARHADPGGLAAYRQLDAADKAEAQALHAELGDANVYVRGVLHQCEPDDRQPLADALAALLGERGRAFLVEPSQAAKTVLMGLAQGPAGPPAKLAPVLRHGLTPGAVPDEAVPEYLRAAGLTVLASGELPLVTTEYTADGTRIELPSAWVVAGTA | failed
9 | MSVVDPSLIERIIRDDVRAMGAYHVPDSHGLVKLDAMENPYRLPPALRSELAARLGEVALNRYPVPSSEALRAKLKEVMQVPAGMEVLLGNGSDEIISMLALAAARPGAKVMAPVPGFVMYAMSAQFAGLEFVGVPLRADFTLDRGAMLAAMAEHQPAIVYLAYPNNPTGNLFDAADMEAIVRAAQGSVCRSLVVVDEAYQPFAQESWMSRLTDFGNLLVMRTVSKLGLAGIRLGYVAGDPQWLEQLDKVRPPYNVNVLTEATALFALEHVAVLDEQAAQLRAERSRVAEGMAAHGGVTVFPSAANFLLARVPDAAQTFDRLLARKVLIKNVSKMHPLLANCLRVTVSTPEENAQFLEAFAASLQD | not failed
10 | MSVWLLQMKTNAIITDITKSIVKMDRILVYRHTNPDPDAIGAQFGLVALLKAAYPEKLVVAMAPVPGHLAWIDTTDEQLVTPQATDLVIAVDCANHERLAGELPTGAFVIKIDHHPNHDPYGQLNWVDETYSSCSEMIYELAQAGCFTVTAAVATKLYAGIIGDTVRFSTPETSTRTLKIASALAATDIDIATISHHEMDLTPALSKLYGYVLSEQTIEPSGLAHVVLPQRIFSDLSLEYGDEDALVPLPGNLTTVKVWLFFIETPQGQYRVHFRSKAINVNAVAKAFNGGGHPLASGAFVPDLATVGQVIEQMQAQVLAATAVDLEHHHHHH | failed
11 | MSVYHHILLAVDFSSEDSQVVQKVRNLASQIGARLSLIHVLDNIPMPDTPYGTAIPLDTETTYDAMLDVEKQKLSQIGNTLGIDPAHRWLVWGEPREEIIRIAEQENVDLIVVGSHGRHGLALLLGSTANSVLHYAKCDVLAVRLRDD | not failed
12 | MSWSKVKYFFFDTPEEKEAAQYGYEKEQTDMKKQQDPPEQQDVTFPKAQPKQNVVSIETAKQSSKVVLLEPRTYSEAQGIADHLKGRRAVVINLQRMSTDQAVRIVDFLSGTVYAIGGDIQKIGPKTFMCTPENVDIVGAISELFGEEEETNIKRWLEHHHHHH | not failed
13 | MSWTVVYSAQAKQDLRNIFEYIAHSLCSPDAAKSQTRRIMAEIHSLDEMPLRYRIYDDEPWRSQGLRFFPVDYYLVFYLPVASANTVKIVRIMYGGRDVKKHLEEELLEHHHHHH | failed
14 | MSYEFYGKTEQEAIKKAMRDLELKEGEFDVEILDKERVGFLFKKEMIKIRVSPHAKEVKKDDFEIKIGDEICDKILEFVKEMLIKMGYSVHLTIEPKEGGYVKISIETDSPNILIGREGKNLDSLQLLTNVYASKLIGENGAFNRVILDIGDYRERFKSRFINLAINSFHKVKRTRRSILLPSMNPFERRIVHTTLNRYSDIKTESEGDGNIKRIRVSYVRNNRYGINNSRGYQKRDIGFKK | failed
15 | MSYLEYTVKSTPSGLRKILYMNWPLTLLLISVASAGFLMLYSVAGGSFSPWAEPQIKRFMAGLVVMTAVAMVPIWFWRNMAAVAYGGSLVLLVMVELFGAVGMGAQRWIDLGFMRLQPSELTKITLVMVLAAYYDWLPGKKTSRPLWVLVPVLIILVPTALVLKQPDLGTAILLLSAGGALMFLAGVHWAYFAAVIAAGVGLITAVFKSRGTDWQLLKDYQFRRIDTFLDPSSDPLGAGYHITQSKIALGSGGWSGRGFMQGTQSRLNFLPEKHTDFIFTTLAEEFGFIGGISLLSLYALIIAFCVATALATRDRFSSLVTLGIAVNFFLFFAVNMSMVMGLAPVVGVPLPMVSYGGSAMLVLLVAFGLVHSAHIHRPR | failed
16 | MSYLLRSDPVSRIHPEPQSLTSFDHFDLLPDSLLLLIFDKVADVKDLGRCCIVSRRFHSLVPFVENVLVRVDCVISDDDSSSSDENHRFSLNTASISDAGGAGGSFSALFRLVFAPIFKPFQMLGQILGPKRSSSSFDASFSAINDEIGVTHHSPTQVLKNFGEIRFLKIELPTGELGIEDGILLKWRADFGSTLDNCMILGASSVIQSNSVKNHENSVDEDNGNIPESFYTNGGLKLRVVWTISSLIAASARHYLLQPIINEHKSLDRLVLSDADGQGVLCMNREQLEELRVTPLSASSASKRTLVPALNMRLWYAPELDLPDGTVLKGATLVAIRPSESKKEVCDASWLSDAFEEPFGTVAKMLIKRRTYCLEMNSF | failed
17 | MSYNVAILMSTYNGMDYLREQIESIRSQTYKQWNLYIRDDGSSDNTIDLIKTFVHQDTRIHFINADKQVNRGVKRSFLNLLSSVKADFYMFCDQDDYWLPNKVKLTLDAMISDYHNKPRLVFTNMNLVDSNLKVLDKASLSAVNISYWTSKDQLMFDNIVTGCTVMINNQLKQYVFPISAKKIVMHDWYIAQLASQLGDIQYVTDPTILYRQHESNQVGVNKSLFGKVKKLARFNDFQTGVILQISQGRLTQKKSQVVFSKTTQAFLNWNFTCPLILKVLPIIQNNFKKHTWPGTIALNLALLRRKKS | failed
18 | MSYRGLPAMTRNDLTIYDDVAAQWWSDDIRWVRTLKAMVPGRLAFFDRKIDWRDKRVLDLGCAGGFMAEALCERGAIVTGIDPAAQAIDAAREHAELDGHDIRYDVGKGETLPYADDSFDAVVCVDVLEHVEDLDLVLSEVARTLVPGGMFFFDTINRNPLARFATITMAEDILRLLPKGTHDPDMFIKPGELHAALGRAGFVPGR | failed
19 | MSYSPSLKEIIAILQKYTSKNYQSNCKTRPDGKLELSLNGVFEEIVKTPGKTRYVTHKQLDQKLKDFKQDLMVELHDTFATKTDLKESEARINQKLEALIQIVMVQGEQIKVHGEQINKLTQAVEKQGEKIEAQGQQIQKVNETLNFVVESLGSIHKRLDSMEGRLDSMENRLDKLESKLEHHHHHH | not failed
20 | MSYVLLLLGFALLIKGADFFVDGSSSIARLLNVSPLLIGLTIVAFGTSSPEATASIIAALNGNPDVALGNVIGSNMFNITLVVGLTALLSPLIVTNATLRKEIPFTLLASIALYIFINDQMIEGAVESTLSRSEGLILLLIFCVFLYYIFEVARTSPREQKIVQDFAIKPTWRKNIFLSILGLAMIIGGGELVIRHSTAIAFSHGMSETLVGLTIVAIGTSLPELVTSLTAALKKESEIALGNIVGSSIFNIFFVLGTAATITPMHVDSRVVVDLLLLIFLTLLLLVFSRTRYTVGKYEGLILASFYIGYMVYIIWRN | failed
21 | MTAAGFNSILCLRQLVRLNRRQYSAPAKSVLSGSQTNDQATPPPTSKSADKMRGWQLHNYGDIDELQLSEMLKIPQIRCSNECLVRIRATAVNPIDLAMLRGYGATVLNKMRCQPGDGIEFPLILGREFCGELVQTGMGVSLPLGSRVWGVVPLQATIGSHAEYVAVPSYCLAPAPKELDDYEAASVLYAGLTAWSGLYITGGLGGPCGATTASGGGAHKRVLVLGGSGGVGTLAIQILKSQKVQVLATCSENAIEMVRNLGADLVVDYNNPQAMEELCKYAPYDIVLDCAGQGGQKAAESKYDFRQYITFSSPLLANIDKQGLGVGALKNVFDLFQTNVRSVTQRGGLVKWGFFSPAPQGIQFLQKLVEQRKLMPLIDSSYGFSELPKAFEKMKSGHLRGKIVVKLREETGD | failed
22 | MTAAILVTGATGKLGQRVVNRLLQKQAKVRVLTRRREDALKLWGDSVDIAEGNFSDPASLKGASRDVDRVFLLSPIGKTLAADQNAVVDAALSAGVSQIVKLSGSDWTLKNAARSISGTAHAAVEKHLAETGIAHTVLRPNAWMQVALEPVVAALRNGEDVPARFGNAAVSFIDADDIADVAVEALSASAPPAGTLVLTGHEALAALGIARIAARILHRPVGVSHQSASTFPAHIGGFEQKAIAEFGQLIGEGLAASTTDIVEQIIGHPPRSVENYLRARLAVAQQGDHSEGEKTWR | failed
